# Results from publication PMC7846742.
# Target: His6-OAZ-GSY-SPM-Ctag (human | Neisseria meningitidis serogroup B (strain MC58)) (UniProt Q9JYV5)
# Assay: cross-linking; NeissLock: Ca2+-induced aspartic anhydride on OAZ reacts with the docked partner; purified proteins mixed at 10 µM each or as indicated (AZI 2.5 µM each; Fig. 4b 0.5 µM each; 30 µM ODC with 10 µM OAZ-Y-SPM), 37 °C, HBS pH 7.4 with 2 mM TCEP, 10 mM CaCl2 unless varied (pH 6.5-8.5, 0.5-10 mM Ca2+, TBS, lyophilised probe); SDS-PAGE with Coomassie, intact ESI-MS, tryptic LC-MS/MS
# His6-AZI-Ctag (human Antizyme Inhibitor), sequence (O14977 whole entry): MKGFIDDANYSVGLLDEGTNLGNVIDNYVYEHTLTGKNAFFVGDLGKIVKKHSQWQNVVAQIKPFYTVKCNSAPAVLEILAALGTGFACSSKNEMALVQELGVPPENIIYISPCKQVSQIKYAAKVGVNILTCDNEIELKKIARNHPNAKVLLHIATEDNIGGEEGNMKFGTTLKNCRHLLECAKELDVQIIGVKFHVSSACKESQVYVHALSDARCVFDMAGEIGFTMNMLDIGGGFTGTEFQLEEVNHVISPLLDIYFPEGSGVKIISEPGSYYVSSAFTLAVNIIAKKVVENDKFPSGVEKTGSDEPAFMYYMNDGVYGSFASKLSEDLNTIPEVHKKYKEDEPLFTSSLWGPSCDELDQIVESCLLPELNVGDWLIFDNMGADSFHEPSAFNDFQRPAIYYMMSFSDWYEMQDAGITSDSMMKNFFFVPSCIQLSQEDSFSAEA
substance,measurement,value
His6-AZI-Ctag (human Antizyme Inhibitor) (from UniProt O14977 1-448) (natural protein),coupling yield,80%
same,percent of AZI conjugated within 10 min,> 50%
